Source: patent publication US20250059270A1 (SESEN BIO, published 2025)
Changes are numbered by the printed parent chain. Numbers in names are those of the source.

Assays:
human IL-6 [1] = biological target: T1, human IL-6 (human, UniProt P05231 30-212); test: cell-based or functional assay
rabbit IL-6 [2] = biological target: T2, rabbit IL-6 (rabbit, UniProt Q9MZR1 27-241, limits assumed); test: statement in the rabbit PK example; no assay named
T2 sequence (looked up): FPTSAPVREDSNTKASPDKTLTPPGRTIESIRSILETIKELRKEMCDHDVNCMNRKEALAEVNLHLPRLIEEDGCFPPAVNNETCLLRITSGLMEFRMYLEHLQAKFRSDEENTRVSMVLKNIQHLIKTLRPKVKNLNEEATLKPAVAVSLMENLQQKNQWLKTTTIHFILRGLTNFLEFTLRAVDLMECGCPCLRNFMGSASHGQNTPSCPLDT

human IL-6 [3] = biological target: T1, human IL-6; test: cell-based or functional assay; remark: listed apart in the source
hyper IL-6 = test: cell-based or functional assay
human IL-6 [4] = biological target: T1, human IL-6; test: functional epitope mapping by ELISA
human IL-6 [5] = biological target: T1, human IL-6; test: yeast surface display of Fab, flow cytometry (APC-A = bound biotinylated IL-6, FITC-A = display) after overnight competition with 2 µM IL-6
dog IL-6 = biological target: T3, dog IL-6 (dog, UniProt P41323 21-207); test: monovalent affinity, method not stated
T3 construct: also called canine IL-6
T3 sequence (looked up): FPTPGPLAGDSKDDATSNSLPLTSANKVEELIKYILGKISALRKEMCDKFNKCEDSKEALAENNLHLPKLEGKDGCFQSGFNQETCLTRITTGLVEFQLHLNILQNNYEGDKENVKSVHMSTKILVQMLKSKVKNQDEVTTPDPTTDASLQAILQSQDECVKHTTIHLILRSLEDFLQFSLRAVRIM

mouse IL-6 = biological target: T4, mouse IL-6 (mouse, UniProt P08505 25-211); test: monovalent affinity, method not stated
T4 construct: also called rodent IL-6
T4 sequence (looked up): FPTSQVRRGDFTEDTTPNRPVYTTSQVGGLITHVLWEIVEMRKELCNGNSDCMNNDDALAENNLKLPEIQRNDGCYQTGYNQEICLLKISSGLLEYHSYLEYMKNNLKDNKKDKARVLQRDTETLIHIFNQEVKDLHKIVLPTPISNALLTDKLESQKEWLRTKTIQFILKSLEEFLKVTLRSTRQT

rabbit IL-6 [6] = biological target: T2, rabbit IL-6; test: monovalent affinity, method not stated
rat IL-6 = biological target: T5, rat IL-6 (rat, UniProt P20607 25-211); test: monovalent affinity, method not stated
T5 construct: also called rodent IL-6
T5 sequence (looked up): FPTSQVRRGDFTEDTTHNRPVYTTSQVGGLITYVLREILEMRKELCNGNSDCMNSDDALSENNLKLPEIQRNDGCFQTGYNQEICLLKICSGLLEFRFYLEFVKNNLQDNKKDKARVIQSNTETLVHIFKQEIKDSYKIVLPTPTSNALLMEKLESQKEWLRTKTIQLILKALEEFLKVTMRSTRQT

human IL-6 [7] = biological target: T1, human IL-6; test: yeast system (yeast display, biotinylated human IL-6); original humanized h64, before affinity maturation; yeast system

B1: EBI-029 IgG2 (antibody)
heavy: QVQLVQSGAEVKKPGSSVKVSCKASGYALSNYLIEWVRQAPGQGLEWMGVITPGSGTINYAQKFQGRVTITADESTSTAYMELSSLRSEDTAVYYCARSRWDPLYYYALEYWGQGTTVTVSSASTKGPSVFPLAPCSRSTSESTAALGCLVKDYFPEPVTVSWNSGALTSGVHTFPAVLQSSGLYSLSSVVTVPSSNFGTQTYTCNVDHKPSNTKVDKTVERKCCVECPPCPAPPVAGPSVFLFPPKPKDTLMISRTPEVTCVVVDVSHEDPEVQFNWYVDGVEVHNAKTKPREEQFNSTFRVVSVLTVVHQDWLNGKEYKCKVSNKGLPAPIEKTISKTKGQPREPQVYTLPPSREEMTKNQVSLTCLVKGFYPSDIAVEWESNGQPENNYKTTPPMLDSDGSFFLYSKLTVDKSRWQQGNVFSCSVMHEALHNHYTQKSLSLSPGK
light: DIVMTQSPDSLAVSLGERATINCRASESVDNYGIPFMNWYQQKPGQPPKLLIYAASNRGSGVPDRFSGSGSGTDFTLTISSLQAEDVAVYYCQQSEEVPLTFGQGTKLEIKRTVAAPSVFIFPPSDEQLKSGTASVVCLLNNFYPREAKVQWKVDNALQSGNSQESVTEQDSKDSTYSLSSTLTLSKADYEKHKVYACEVTHQGLSSPVTKSFNRGEC
notes: also called 018IgG2
With B1 as the binder, how does the “IC50, HEK-Blue IL6 reporter cells, 20 pM IL-6” value (human IL-6 [1]) read?
Its value is 47 pM.

Does B1 bind (rabbit IL-6 [2])?
Result: no binding

B2: EBI-031 (EBI-030 IgG2-H311A) (antibody)
heavy: B1 heavy with A28V, S30P, I51T, S55G, H311A
light: B1 light
notes: also called EBI-030-H311A
B2 was tested. Which “IC50, cis-signaling, HEK-Blue IL6 cells, 20 pM free IL-6” value (human IL-6 [3]) did it give?
Its value is 14.2 pM.

And the “IC50, fold less than that of EBI-029, HEK-Blue IL6” value (human IL-6 [3])?
The value was over 75 fold.

And the “IC90, fold less than that of EBI-029, HEK-Blue IL6” value (human IL-6 [3])?
Its value is about 350 fold.

And the “fold decrease in IC50 compared with EBI-029, HEK-Blue IL6” value (human IL-6 [3])?
The value was about 50 fold.

What about the “fold decrease in IC90 compared with EBI-029, HEK-Blue IL6” value (human IL-6 [3]) of the same binder?
Its value is over 100 fold.

What about the “fold greater potency than tocilizumab, cis-signaling, HEK-Blue IL6 cells” value (human IL-6 [3]) of the same binder?
The value was over 900 fold.

And the “IC50, trans-signaling, HEK-Blue IL6 cells, 200 pM hyper IL-6” value (hyper IL-6)?
Its value is 32 pM.

And the “IC50, HEK-Blue IL6 reporter cells, 20 pM IL-6” value (human IL-6 [1])?
The value was 0.6 pM.

Does B2 bind (rabbit IL-6 [2])?
Result: no binding

B3: EBI-029 IgG2-H311A (antibody)
heavy: B1 heavy with H311A
light: B1 light
notes: also called EBI-029-H311A
Does B3 bind (rabbit IL-6 [2])?
Result: no binding

B4: EBI-030 IgG2 (antibody)
heavy: B1 heavy with A28V, S30P, I51T, S55G
light: B1 light
With B4 as the binder, how does the “IC50, fold less than that of EBI-029, HEK-Blue IL6 (EBI-030 produced in HEK cells)” value (human IL-6 [3]) read?
Its value is over 50 fold.

And the “IC90, fold less than that of EBI-029, HEK-Blue IL6 (EBI-030 produced in HEK cells)” value (human IL-6 [3])?
The value was about 4000 fold.

What about the “fold decrease in IC50 compared with EBI-029, HEK-Blue IL6” value (human IL-6 [3]) of the same binder?
Its value is about 50 fold.

And the “fold decrease in IC90 compared with EBI-029, HEK-Blue IL6” value (human IL-6 [3])?
The value was over 100 fold.

What about the “IC50, HEK-Blue IL6 reporter cells, 20 pM IL-6 (EBI-030 CHO, stable CHO pool)” value (human IL-6 [1]) of the same binder?
The value was 1.4 pM.

And the “IC50, HEK-Blue IL6 reporter cells, 20 pM IL-6 (EBI-030 from HEK-6E cells)” value (human IL-6 [1])?
Its value is 0.9 pM.

Does B4 bind (rabbit IL-6 [2])?
Result: no binding

B5: murine 64 antibody (hybridoma 64, subclone 64.58) (antibody, V domains shown)
VH: QVQLQQSGAELVRPGTSVKVSCKASGYAFSNYLIEWVKQRPGQGLEWIGVITPGSGTINYNEKFKGKAVLTADKSSSTVYMQLSSLTSDDSAVYFCAKSRWDPLYYYALEYWGQGTSVTVSS
VL: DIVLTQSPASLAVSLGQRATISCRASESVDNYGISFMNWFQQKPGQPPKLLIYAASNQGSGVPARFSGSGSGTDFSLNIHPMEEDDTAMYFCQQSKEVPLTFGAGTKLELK
notes: Murine monoclonal from a hybridoma; also called m64
Does B5 bind (human IL-6 [4])?
Result: binds

B6: EBI-029 Fab variant I51T/S55G (Fab, V domains shown)
VH: QVQLVQSGAEVKKPGSSVKVSCKASGYALSNYLIEWVRQAPGQGLEWMGVTTPGGGTINYAQKFQGRVTITADESTSTAYMELSSLRSEDTAVYYCARSRWDPLYYYALEYWGQGTTVTVSS
VL: DIVMTQSPDSLAVSLGERATINCRASESVDNYGIPFMNWYQQKPGQPPKLLIYAASNRGSGVPDRFSGSGSGTDFTLTISSLQAEDVAVYYCQQSEEVPLTFGQGTKLEIKR
How did the “Fold increase in binding/display over wt” value (human IL-6 [5]) turn out when B6 was run?
Its value is 1.92 fold.

B7: 018 Fab (Fab, V domains shown)
VH: B6 VH with T51I, G55S
VL: B6 VL
notes: Fab with CK and IgG1 CH1 domains; also called Fab fragment of the h64-1.4 humanized antibody
How did the Kd (dog IL-6) turn out when B7 was run?
The Kd was over 1000 nM.

And the Kd (mouse IL-6)?
The Kd was over 1000 nM.

What about the Kd (rabbit IL-6 [6]) of the same binder?
Its Kd is over 1000 nM.

And the Kd (rat IL-6)?
The Kd was over 1000 nM.

B8: h64 IgG (humanized 64, human IgG1) (antibody, V domains shown)
VH: B6 VH with L29F, T51I, G55S
VL: DIVMTQSPDSLAVSLGERATINCRASESVDNYGISFMNWYQQKPGQPPKLLIYAASNQGSGVPDRFSGSGSGTDFTLTISSLQAEDVAVYYCQQSKEVPLTFGQGTKLEIK
notes: Expressed as inline fusions with the human IgG1 constant domains; also called the original humanized molecule; original h64 antibody
With B8 as the binder, how does the Kd (human IL-6 [7]) read?
Its Kd is 0.343 nM.

B9: EBI-030 Fab (A28V/S30P/I51T/S55G) (Fab, V domains shown)
VH: B6 VH with A28V, S30P
VL: B6 VL
notes: IgG1 Fab; also called A28V/S30P/I51T/S55G (EBI-030)
How did the “Fold increase in binding/display over wt” value (human IL-6 [5]) turn out when B9 was run?
The value was 4 fold.

B10: EBI-029 Fab variant A28V/I51T/S55G (Fab, V domains shown)
VH: B6 VH with A28V
VL: B6 VL
With B10 as the binder, how does the “Fold increase in binding/display over wt” value (human IL-6 [5]) read?
The value was 3.1 fold.

B11: EBI-029 Fab variant S30P/I51T/S55G (Fab, V domains shown)
VH: B6 VH with S30P
VL: B6 VL
Which “Fold increase in binding/display over wt” value (human IL-6 [5]) does the source give for B11 here?
Its value is 2.52 fold.

B12: EBI-029 Fab (020 Fab) (Fab, V domains shown)
VH: B6 VH with T51I, G55S
VL: B6 VL
notes: 018 Fab heavy chain with DKTHT added at the C-terminus; also called the 020 molecule; WT (EBI-029)
Does B12 bind (rabbit IL-6 [2])?
Result: no binding
